How the values were obtained:
[1] = target: NY-ESO-1 peptide … presented on peptide-pulsed T2 cells (UniProt P61769); assay: cell-based or functional assay
[2] = target: g9-154 (gp100) peptide … presented on peptide-pulsed T2 cells (UniProt P61769); assay: cell-based or functional assay

IFN-γ secreted by transfected CD4+ T cells (Patient) with peptide-pulsed T2 cells [1] [pg/mL]	IFN-γ secreted by transfected CD8+ T cells (Patient) with peptide-pulsed T2 cells [1] [pg/mL]	IFN-γ secreted by transfected CD4+ T cells (Patient) with peptide-pulsed T2 cells [2] [pg/mL]	IFN-γ secreted by transfected CD8+ T cells (Patient) with peptide-pulsed T2 cells [2] [pg/mL]	Substance
8970	10100	< 30	< 30	1G4 mut2 (A71I): WT 1G4 alpha chain + beta chain A71I (TCR)
6380	10200	< 30	< 30	1G4 mut1 (G70A): WT 1G4 alpha chain + beta chain G70A (TCR)
10700	8860	< 30	< 30	1G4 mut3 (G70A/A71I): WT 1G4 alpha chain + beta chain G70A/A71I (TCR)

Source: US20100034834A1
